For one assay, the target named is fXa (Homo sapiens, UniProt P00742). As to the kind of experiment: Chromogenic test of protease inhibition in buffer, fXa (substrate S-2765). The class given is biochemical. The settings on record: buffer solution, summary of Table 2. As for the experimental part: (§1) In order to assess selectivity of the fXIIa inhibition by the polypeptide comprising the sequence of the infestin-4 mutant MutB, its inhibitory activity in buffer solution against the purified coagulation factors was determined. The polypeptide's activity was compared with the known fXIIa inhibitors: CTI, infestin-4, infestin-4-based mutant Mut15, LCTI-III. […] The standard deviation amounted to about 50% of the average value; each value was measured by performing 2-3 repeats.
Sequence of fXa (P00742 235-488 limits assumed): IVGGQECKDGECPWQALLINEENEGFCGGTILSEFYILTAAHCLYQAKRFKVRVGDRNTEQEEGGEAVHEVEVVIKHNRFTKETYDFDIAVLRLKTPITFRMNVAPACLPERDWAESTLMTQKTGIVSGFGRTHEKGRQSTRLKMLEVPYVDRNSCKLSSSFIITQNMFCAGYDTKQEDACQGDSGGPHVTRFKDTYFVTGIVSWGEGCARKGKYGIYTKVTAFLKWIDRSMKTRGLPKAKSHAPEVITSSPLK
Sequence of fXa (P00742 41-179 partner limits assumed): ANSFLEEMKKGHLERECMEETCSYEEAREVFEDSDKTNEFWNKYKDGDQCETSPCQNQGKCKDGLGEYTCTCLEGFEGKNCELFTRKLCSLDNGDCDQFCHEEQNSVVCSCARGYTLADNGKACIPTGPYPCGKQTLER
(§2) To determine the inhibition activity of such proteins as MutB, CTI, Inf4, Mut15, and LCTI-III as related to different coagulation proteases in a buffer, the chromogenic test was used: the mixture of protease and inhibitor was incubated in the wells of the plate for 15 minutes at 37° C., after which the chromogenic substrate solution was added to the mixture, and the protease activity was measured as the rate of chromogenic product formation at 37° C.
(§3) Chromogenic substrates included a p-nitroanilide group cleaved by the corresponding proteases. After cleavage of the p-nitroanilide group from the substrate molecule, the group absorption spectrum changes, and the change of concentration of such product within time can be detected at the light wavelength of 405 nm using a plate spectrophotometer. […]

A further assay deals with T1, fXIIa (Homo sapiens, UniProt P00748).
T1 construct: it can be transformed into an active protease, factor XIIa (fXIIa)
T1 sequence (P00748 373-615 limits assumed, other chains not shown): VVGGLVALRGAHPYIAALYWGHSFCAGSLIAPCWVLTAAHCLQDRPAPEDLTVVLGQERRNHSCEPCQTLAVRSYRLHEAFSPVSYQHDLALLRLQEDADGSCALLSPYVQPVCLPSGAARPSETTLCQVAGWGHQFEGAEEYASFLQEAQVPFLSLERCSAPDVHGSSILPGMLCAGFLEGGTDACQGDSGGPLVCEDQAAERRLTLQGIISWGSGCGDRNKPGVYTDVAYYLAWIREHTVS
In words: Chromogenic test of protease inhibition in buffer, fXIIa (substrate S-2302). The class given is biochemical. The settings on record: versus fXIa, fXa, aPC; Table 2. The protocol: as §1, §2, §3

Another assay concerns fibrinolysis. The settings on record: supposedly by inhibiting the tissue activator of plasminogen; cited from earlier work.
Another assay addresses T2, factor XIa (UniProt P03951 19-625).
T2 construct: also called fXIa
In words: chromogenic test (S-2366), IC50 converted by Cheng-Prusoff. As for the experimental part:
as §2
(§4) Chromogenic substrates included a p-nitroanilide group cleaved by the corresponding proteases. After cleavage of the p-nitroanilide group from the substrate molecule, the group absorption spectrum changes, and the change of concentration of such product within time can be detected at the light wavelength of 405 nm using a plate spectrophotometer. To build a dependence curve of the protease activity from the inhibitor concentration, different inhibitor concentrations were added into several samples with the same protease concentration. After that, the inhibitor concentration able to decrease the protease activity by 50% (IC50) was determined. The inhibition constant Ki was calculated using the Cheng-Prusoff equation (Ki=IC50/(1+S/KM)), where S is the initial substrate concentration, KM is the Michaelis-Menten constant of the substrate to the protease.

Another assay concerns the target T3, activated protein C (UniProt P04070 43-197; P04070 212-461).
T3 construct: also called aPC
In words: chromogenic test (Spectrozyme pCa), IC50 converted by Cheng-Prusoff. As for the experimental part: as §2, §4

The next assay has as its target aPC (Homo sapiens, UniProt P04070). In words: Chromogenic test of protease inhibition in buffer, aPC (substrate Spectrozyme pCa). It counts as biochemical. The conditions noted are these: buffer solution, summary of Table 2. The protocol: as §1, §2, §3

T3 sequence (P04070 43-197, form in doubt, chain 1 of 2): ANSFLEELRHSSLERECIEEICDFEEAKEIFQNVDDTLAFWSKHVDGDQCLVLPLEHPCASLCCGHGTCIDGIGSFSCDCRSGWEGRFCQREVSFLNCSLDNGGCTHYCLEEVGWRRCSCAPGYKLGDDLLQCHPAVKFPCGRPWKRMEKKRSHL
T3 sequence (P04070 212-461, form in doubt, chain 2 of 2): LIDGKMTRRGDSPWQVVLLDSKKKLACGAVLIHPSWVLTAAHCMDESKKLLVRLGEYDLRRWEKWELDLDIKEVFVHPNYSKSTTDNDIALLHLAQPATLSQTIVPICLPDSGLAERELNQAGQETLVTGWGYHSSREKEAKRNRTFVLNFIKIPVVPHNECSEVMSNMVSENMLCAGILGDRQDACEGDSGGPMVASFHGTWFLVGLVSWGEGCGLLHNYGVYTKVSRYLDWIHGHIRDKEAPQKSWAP
Sequence of aPC (P04070 212-450 limits assumed): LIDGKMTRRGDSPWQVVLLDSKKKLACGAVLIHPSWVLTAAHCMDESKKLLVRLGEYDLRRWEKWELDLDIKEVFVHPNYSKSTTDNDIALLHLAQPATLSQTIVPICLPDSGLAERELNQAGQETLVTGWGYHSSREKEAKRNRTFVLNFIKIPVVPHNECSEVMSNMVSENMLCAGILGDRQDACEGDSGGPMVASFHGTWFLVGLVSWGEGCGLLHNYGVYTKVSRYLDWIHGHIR
Sequence of aPC (P04070 43-197 partner limits assumed): as the sequence (P04070 43-197, form in doubt, chain 1 of 2) above

For the molecule “MutB: polypeptide comprising the sequence of infestin-4 mutant MutB (SEQ ID NO: 1), inhibition loop TRNFVA; high-selectivity fXIIa inhibitor (EVRNPCACTRNFVAVCGSDGKTYGNPCMLNCAAQTKVPGLKLVHEGRCQRSNVEQF; Infestin-4 mutant MutB)”, in the assay with fXa, the “inhibition of fXa (in words)” value is on record as “do not inhibit”. The “fXIIa inhibition selectivity among the said fXIIa inhibitors” value with fXIIa is “highest”.

B1: corn trypsin inhibitor (other, UniProt P01088 29-138, looked up)
chain: SAGTSCVPGWAIPHNPLPSCRWYVTSRTCGIGPRLPWPELKRRCCRELADIPAYCRCTALSILMDGAIPPGPDAQLEGRLEDLPGCPREVQRGFAATLVTEAECNLATIS
notes: Isolated from corn; also called CTI
The Ki is the dissociation constant of the complex between target and ligand, obtained from inhibition or displacement. Read a high Ki as weaker binding. Consider B1, for which, in the assay on fibrinolysis, the effect on fibrinolysis entry was “can delay fibrinolysis”. For the same molecule, the Ki in the assay with factor XIa stood at 15 µM; with activated protein C it was 20 µM. For the same molecule, the “inhibition of aPC (in words)” value with aPC is on record as “inhibits”.

These data come from US10006080B2, “High-selectivity contact activation inhibitor based on infestin-4” (OBSCHESTVO S OGRANICHENNOY OTVETSTVENNOSTYU …, priority 2013, dated 2018).
